Assay results from US20160053277A1, “Compositions Having Dicamba Decarboxylase Activity and Methods of Use” (PIONEER HI-BRED INTERNATIONAL, INC., priority 2013, published 2016).

Columns and labels:
[1] = Saturation mutagenesis of SEQ ID NO:109: dicamba decarboxylation activity of point mutants (carbon dioxide released); conditions: decarboxylation activity (carbon dioxide released) of point mutant compared with unmutated backbone protein; backbone SEQ ID NO: 109
[2] = 14C assay with IPTG-induced recombinant E. coli cells: 14CO2 captured from [14C]-carboxyl-labeled dicamba; conditions: for decarboxylation activity of dicamba: among the 108 sequences tested, recombinant E. coli cells; for Enzymatic Detection level: dicamba decarboxylation activity of the protein of the given SEQ ID NO, High / Low / No; for Dicamba Decarboxylase Activity: induced recombinant E. coli cells, [14C]-carboxyl-labeled dicamba, 14CO2 capture

Molecule	Fold Activity [1]	decarboxylation activity of dicamba [2]	Enzymatic Detection level [2]	Dicamba Decarboxylase Activity [2]
87 (protein, listed as Novosphingobium sp.) MASDIATAADLQTGGRQGYLRIATEEAFATRDQIDVYLRMVRDGTADRGMTSLWGFYAQSPSARATQIIERLLDLGEQRLADMDAAGIDKAVLALTSPGVQPLLDMEEARRIAGNANDRLAERCAAHPDRFIGMTAVAPQDPQWSAREILRGATQLGFKGVQINSHTQGRYLDEPFFDPIFRALGDVGQPLYIHPGTPPDSMIGPLLDAGLDGAIYGFGVETGMHLLRLITAGIFDRYPDLQIMVGHMGEALPYWLYRLDYMHQAGIRSQRYERMRPLKRTIAGYFRSNVLVTCSGMAWEPAIQFARQVMGEDRVMYAMDYPYQYEADEVRALDVMDLSPESKRKFFQTNAERWFDL	1.4	showed decarboxylation activity of dicamba	High	High
2 (protein, listed as Serratia sp.) MAKIICLEEHTLDKALVMASMPAALEQAPFLSDWGKTVTDGNLPDRSRPQIEKNDLINIKGADIGRGRLDDMDVAGITMQVLSVGGFPHLISAAEGVDLNRAANDRLADAVNAHPDRFAAFATLPWAQPDSAEKELERAVKELGFKGALLNGRPSTHFLDHPDYDGLLARFNALGVPLYLHPGLPVRSVQQAYYGGFSDEVTARLSMFGWGWHHEAGIHLLRLILSGAFDKYPNLQVISGHWGEMLPFWLQRLDDSLPQAATGLRRTIAQTFKEQVYVTPSGMLTLPHFQFIYALLGAERIIFSVDYPYQTLDGVKAFIQSLPVPEEAKEAIAFRNAERLLGLTS	1.1	showed decarboxylation activity of dicamba	High	High
55 (protein, listed as Serratia sp.) MAKIICLEEHTLDKALVMASMPAALEQAPFLSDWGKTVTDGNLPDRSRPQIEKNDLINIKGADIGRGRLDDMDVAGITMQVLSVGGFPHLISAAEGVDLNRAANDRLADAVNAHPDRFAAFATLPWAQPDSAEKELERAVKELGFKGALLNGRPSTHFLDHPDYDGLLARFNALGVPLYLHPGLPVRSVQQAYYGGFSDEVTARLSMFGWGWHHEAGIHLLRLILSGAFDKYPNLQVISGHWGEMLPFWLQRLDDSLPQAATGLRRTIAQTFKEQVYVTPSGMLTLPHFQFIYALLGAERIIFSVDYPYQTLDGVKAFIQSLPVPEEAKEAIAFRNAERLLGLTS	1.5	showed decarboxylation activity of dicamba	High	High
79 (protein, Pyrenophora teres) MATTTTPSTLIATLESHLTPTLAFTSPTTSPTQPALHLIPPTTLTKLRNLGPGRVKDMHMLGHSRQIISHIPVAAPPQICSRFNDAIHAATMTNTAKFSVLAVLPTDGMEAAKELARCVSKYRFVGGVIGLNRGLRINGEGWEELWGLAERLRIPIMFREMWPLAFEIVDYQHHLPYSALGPILTQLHTSHTSSPLPLVRLYLSSVFDHYPSLRLVLAHPGSLPSLVPRIESLINSIPATDKPKRSFLDVWQHNIYLTTADAQDMSSLRALLEQIPVDRVLYASNYPFEERGNELMNELRESEFLTNIEWERVAWVNAETLFNLKEAGTKEARQLTTIPSSRS	0.9	showed decarboxylation activity of dicamba	High	High
57 (protein, Collimonas fungivorans) MAKLICVEEHVLDPAVGAATQSLVRAEAPYLPDWGSRVLDGRHVADRSRPHVIAPSESARKALEMGEPRLADMDAASIDMQVLSYGGFPQLLPAAQAIDLNRAANDKLALAAQAHPARFAGFATLPWQAPEAAARELERAVKQLGLKGALINGRPGDTFLDDARYAPILAAFDELKVPLYVHPGLPLPAVQAPYYGGFERELSARLAMFAWGWHNEAGIQVVRMLLAGVFDRHPRLQLISGHWGEMVPFFLQRLEDSIPQEASGLQRPIVQTYREHVYISPSGMFTLPHFQFIHALMGAQRILYSIDYPYQSLDGARAFIERLPISDTDKALIAHRNAERLLHL	2	showed decarboxylation activity of dicamba	High	High
58 (protein, Mycobacterium colombiense) MARVIALEEHYATTEFLRGPGTWLASRPGIVEPAGDLGDGRIAAMDQAGVDLAVLSLAAPGVEQLDPDDAVRLARDCNDQLAAAVRRYPDRLAGFATVPTSAPDRAADELERAVRGLGFPGAVINGHSRGRYLDDPFFEPVLARAAELQAPIYLHPTIPPAGVIESSYAGFAEPVTFALATVGWGWHINTATHALRMILGGVFDRHPSLQMIIGHMGEATSFMLPRFDATLKPELTGLNHPVSSYLRENFHYTFANFNDHATYANLVAQVGIERVAFSADYPFGSMVDARAFLDGLPLSDDERAAISHRNAEKLLGL	1.5	showed decarboxylation activity of dicamba	High	High
81 (protein, listed as Verticillium dahliae) MAASTKPKVVDIHTHMYPPSYIDILTSRTAIPVVRTFPQAADPRLILLDAEQQALDAALQDPTAKPPGRPLTSHYASLDQKIHFMDTHSIDISVVSLANPWLDFIEPKEAAATARSVNDEFEAMCASQPGRLFFFAALPLTAPLPALLEAVRHVAELEHCRGVILGTSGLGSGLDDPELVPVLEAVAAAALTVFLHPHYGLPNDVWGPRASAEYGHVLPLALGFPMETTIAVARMYLAGVFDRVPALRMLLAHSGGTLPFLAGRIESCILHDGQLVAEGKVGAARRTIWDVLREQVYLDAVIYSEIGLKAAIAASGGADRLMFGTDHPFFPPLGTDEQAKKESRINAGGSRPMITGNAMINGHGGLCNHITQSDYQDVVL	1.2	showed decarboxylation activity of dicamba	High	High
88 (protein, listed as Starkeya novella) MARKIALEEHFTTPELAGKYVARPTQSDALFADIERRLADFDELRLEMMDRAEIDLMVLSVTTPGVQGVRDTGEAIRLARGANDFLAREVQKRPSRYAGFAHLAMQDAEAAATELERAVRELGFRGALINGQTNGHYLDEDQYAPFWERVQELDVPVYLHPGNMADSPAMFAHRPELGGPIWAWTAETAAHALRLVFGGTFTRFPGAKVILGHMGETLPFLLWRLDSRREFDLGEKLAPDALPSAIIKRNIAVTTSGVCDPAPLVAALQALSDDNVMFSVDYPYEDPQLASKFIETAPIGEETRAKVCHGNAERLLGL	1.3	showed decarboxylation activity of dicamba	High	High
56 (protein, Enterobacter aerogenes) MAKIICLEEHYLDSELGRACMPVALEQAPFLGDWGKTVADGHNPDRSRPQIEKNALINAKGADLGSRRLRDMDEAGITLQILSVGGFPQLAPEDEAVTLNTAANDRLAEAVRNHPDRFAAFATLPWAQPKDAENELVRAVEKLGFKGALLNGRPSSCFLDHPDYDSLLSRFNKLNVPLYLHPGLPLKSVQQAYFTGFSAEVNARLSMFGWGWHHEAGIHLLRLMLSGAFDKYPNMQVISGHWGEMLPFWLQRLDDSLPLAATGLSRTLTRTFQEHVYVTPSGMLTLPHFKFIYELMGAERILFSVDYPYQTLDGVKTFIDSLPVNKAEKEAIAFRNAERLLGITA	1.3	showed decarboxylation activity of dicamba	High	High
